B1: WO2/10D5_HCDR3 rFab (Fab, V domains shown)
VH: VTLKESGPGLLKPSQTLSLTCSFSGFSIRTSKVGVSWIRQPSGKGLEWLAHIYWDDDKRYNPSLESRLTISKDTSRDMVFMKITSVDTADTATYYCVRRPITPVLVDAMDYWGQGTTLTVSS
VL: DVLMTQTPLSLPVNLGEQASISCRSSQSIVHSNGHTYLEWYLQRPGQSPKLLIYQVSTRFSGVPDRFSGSGSGTDFTLRISRVEAEDLGVYYCFQASLVPLTFGAGTKLELK
B2: WO2/12A11_HCDR3 rFab (Fab, V domains shown)
VH: VTLKESGPGLLKPSQTLSLTCSFSGFSIRTSKVGVSWIRQPSGKGLEWLAHIYWDDDKRYNPSLESRLTISKDTSRDMVFMKITSVDTADTATYYCARRTTTADYFAYWGQGTTLTVSS
VL: B1 VL

Experiments:
Experiment in all cases: SPR
[1] = target: 20.1_VH/WO2_VL rFab (mouse | human)
[2] = target: WO2_VH/gWO2_VL rFab (mouse | human)
[3] = target: gWO2_VH/WO2_VL rFab (mouse | human)
[4] = target: gWO2 rFab (mouse | human)
[5] = target: WO2 (Y58>A) mutant rFab (mouse | human)
[6] = target: WO2_VH/20.1_VL rFab (mouse | human)
[7] = target: biotinylated Aβ1–16 peptide (human)
[8] = target: biotinylated Aβ1–42 high molecular weight (HMW) soluble oligomers (human)

Molecule | Kd [1] | koff [1] | kon [1] | Kd [2] | koff [2] | kon [2] | Kd [3] | koff [3] | kon [3] | Kd [4] | Kd [5] | Kd [6] | koff [6] | kon [6] | Kd [7] | koff [7] | Kd [8] | koff [8] | kon [7] | kon [8]
Aβ1–16-Im7 fusion protein (domain or fragment) | 2.8 nM | 0.0015 s⁻¹ | 540000 M⁻¹ s⁻¹ | 349 nM | 0.145 s⁻¹ | 390000 M⁻¹ s⁻¹ | 79 nM | 0.026 s⁻¹ | 330000 M⁻¹ s⁻¹ | 21300 nM | 4900 nM | 41 nM | 0.0614 s⁻¹ | 1.5e+06 M⁻¹ s⁻¹ |  |  |  |  |  | 
B1 |  |  |  |  |  |  |  |  |  |  |  |  |  |  | 154 nM | 0.00974 s⁻¹ | 89.2 nM | 0.00546 s⁻¹ |  | 
B2 |  |  |  |  |  |  |  |  |  |  |  |  |  |  | 262 nM | 0.0449 s⁻¹ | 135 nM | 0.0261 s⁻¹ | 171000 M⁻¹ s⁻¹ | 133000 M⁻¹ s⁻¹

From article PMC3039135
